Reference: the supplement of paper PMC6755084

System: F1*sub RNA substrate (template-directed ligation)
Assay: fraction ligated after 30 min (ligated reads / total reads); higher = more ligase activity; sequences stand for … in GAGACCGCAACTGAAAAGTTGT…AGTTCTGCACGTAGAAGCAAAAGGC
Settings: 42 °C
How it was run: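 Ribozyme variants were transcribed with T7 from PCR-amplified oligo-pool templates and gel-purified. Ligated and unligated bands, separated on gel, were reverse transcribed with barcoded primers and sequenced on a MiSeq, with core bases filtered at quality ≥20. Fraction ligated per variant was computed as ligated reads divided by total reads.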

Sequence	fraction ligated
TATCACTTGTGAAGACACTTTGGAGGGTTGA [3d1727]	0.0789
TATCACTTGTGAAGACACTTTGGATGGGTTA [3d1729]	0.823
TATCACTTGTGAAGACACTTTGGATGGGTTG [3d1730]	0.854
TATCACTTGTGAAGACACTTTGGATGGGTTGA [2d180]	0.853
TATCACTTGTGAAGACACTTTGGATGGTTGA [3d1728]	0.243
TATCACTTGTGAAGACACTTTGGTGGGTTGA [3d1726]	0.102
TATCACTTGTGAAGACATTTGGATGGGTTGA [3d1723]	0.855
TATCACTTGTGAAGACCTTTGGATGGGTTGA [3d1722]	0.823
TATCACTTGTGAAGCACTTTGGATGGGTTGA [3d1720]	0.845
TATCACTTGTGAGACACTTTGGATGGGTTGA [3d1718]	0.841
TATCACTTGTGTAAAACTTTGGATGGGTTGA [3d1744]	0.856
TATCACTTGTGTAAACACTTGGATGGGTTGA [3d1747]	0.816
TATCACTTGTGTAAACACTTTGATGGGTTGA [3d1748]	0.831
TATCACTTGTGTAAACACTTTGGAGGGTTGA [3d1750]	0.0713
TATCACTTGTGTAAACACTTTGGATGGGTTA [3d1752]	0.805
TATCACTTGTGTAAACACTTTGGATGGGTTG [3d1753]	0.859
TATCACTTGTGTAAACACTTTGGATGGTTGA [3d1751]	0.328
TATCACTTGTGTAAACACTTTGGTGGGTTGA [3d1749]	0.0929
TATCACTTGTGTAAACATTTGGATGGGTTGA [3d1746]	0.833
TATCACTTGTGTAAACCTTTGGATGGGTTGA [3d1745]	0.807
TATCACTTGTGTAACACTTTGGATGGGTTGA [3d1732]	0.841
TATCACTTGTGTAAGAACTTGGATGGGTTGA [3d1765]	0.84
TATCACTTGTGTAAGAACTTTGATGGGTTGA [3d1766]	0.834

Sequence	fraction ligated
TATCACTTGTGTAAGAACTTTGGAGGGTTGA [3d1768]	0.0385
TATCACTTGTGTAAGAACTTTGGATGGGTTA [3d1770]	0.771
TATCACTTGTGTAAGAACTTTGGATGGGTTG [3d1771]	0.85
TATCACTTGTGTAAGAACTTTGGATGGTTGA [3d1769]	0.0688
TATCACTTGTGTAAGAACTTTGGTGGGTTGA [3d1767]	0.0854
TATCACTTGTGTAAGAATTTGGATGGGTTGA [3d1764]	0.863
TATCACTTGTGTAAGACACTGGATGGGTTGA [3d1786]	0.792
TATCACTTGTGTAAGACACTTGATGGGTTGA [3d1787]	0.8
TATCACTTGTGTAAGACACTTGGAGGGTTGA [3d1789]	0.011
TATCACTTGTGTAAGACACTTGGATGGGTTA [3d1791]	0.349
TATCACTTGTGTAAGACACTTGGATGGGTTG [3d1792]	0.801
TATCACTTGTGTAAGACACTTGGATGGTTGA [3d1790]	0.0286
TATCACTTGTGTAAGACACTTGGTGGGTTGA [3d1788]	0.0212
TATCACTTGTGTAAGACACTTTATGGGTTGA [3d1793]	0.0875
TATCACTTGTGTAAGACACTTTGAGGGTTGA [3d1795]	0.0251
TATCACTTGTGTAAGACACTTTGATGGGTTA [3d1797]	0.0515
TATCACTTGTGTAAGACACTTTGATGGGTTG [3d1798]	0.544
TATCACTTGTGTAAGACACTTTGATGGTTGA [3d1796]	0.0289
TATCACTTGTGTAAGACACTTTGGAGGGTTA [3d1804]	0.0394
TATCACTTGTGTAAGACACTTTGGAGGGTTG [3d1805]	0.0238
TATCACTTGTGTAAGACACTTTGGAGGTTGA [3d1803]	0.0314
TATCACTTGTGTAAGACACTTTGGATGGGTT [3d1808]	0.615
TATCACTTGTGTAAGACACTTTGGATGGGTTA [2d192]	0.823

Sequence	fraction ligated
TATCACTTGTGTAAGACACTTTGGATGGGTTG [2d193]	0.845
TATCACTTGTGTAAGACACTTTGGATGGGTTGA [1d10]	0.859
TATCACTTGTGTAAGACACTTTGGATGGTTA [3d1806]	0.101
TATCACTTGTGTAAGACACTTTGGATGGTTG [3d1807]	0.115
TATCACTTGTGTAAGACACTTTGGATGGTTGA [2d191]	0.198
TATCACTTGTGTAAGACACTTTGGGGGTTGA [3d1799]	0.0501
TATCACTTGTGTAAGACACTTTGGTGGGTTA [3d1801]	0.0254
TATCACTTGTGTAAGACACTTTGGTGGGTTG [3d1802]	0.0157
TATCACTTGTGTAAGACACTTTGGTGGTTGA [3d1800]	0.0267
TATCACTTGTGTAAGACACTTTGTGGGTTGA [3d1794]	0.00464
TATCACTTGTGTAAGACATTGGATGGGTTGA [3d1779]	0.848
TATCACTTGTGTAAGACATTTGATGGGTTGA [3d1780]	0.494
TATCACTTGTGTAAGACATTTGGAGGGTTGA [3d1782]	0.0398
TATCACTTGTGTAAGACATTTGGATGGGTTA [3d1784]	0.822
TATCACTTGTGTAAGACATTTGGATGGGTTG [3d1785]	0.838
TATCACTTGTGTAAGACATTTGGATGGTTGA [3d1783]	0.169
TATCACTTGTGTAAGACATTTGGTGGGTTGA [3d1781]	0.0614
TATCACTTGTGTAAGACCTTGGATGGGTTGA [3d1772]	0.856
TATCACTTGTGTAAGACCTTTGATGGGTTGA [3d1773]	0.819
TATCACTTGTGTAAGACCTTTGGAGGGTTGA [3d1775]	0.137
TATCACTTGTGTAAGACCTTTGGATGGGTTA [3d1777]	0.81
TATCACTTGTGTAAGACCTTTGGATGGGTTG [3d1778]	0.812
TATCACTTGTGTAAGACCTTTGGATGGTTGA [3d1776]	0.204

Sequence	fraction ligated
TATCACTTGTGTAAGACCTTTGGTGGGTTGA [3d1774]	0.157
TATCACTTGTGTAAGACTTTGGATGGGTTGA [3d1754]	0.868
TATCACTTGTGTAAGCACTTGGATGGGTTGA [3d1757]	0.805
TATCACTTGTGTAAGCACTTTGATGGGTTGA [3d1758]	0.811
TATCACTTGTGTAAGCACTTTGGAGGGTTGA [3d1760]	0.121
TATCACTTGTGTAAGCACTTTGGATGGGTTA [3d1762]	0.831
TATCACTTGTGTAAGCACTTTGGATGGGTTG [3d1763]	0.851
TATCACTTGTGTAAGCACTTTGGATGGTTGA [3d1761]	0.256
TATCACTTGTGTAAGCACTTTGGTGGGTTGA [3d1759]	0.117
TATCACTTGTGTAAGCATTTGGATGGGTTGA [3d1756]	0.851
TATCACTTGTGTAAGCCTTTGGATGGGTTGA [3d1755]	0.76
TATCACTTGTGTAGAACTTTGGATGGGTTGA [3d1734]	0.822
TATCACTTGTGTAGACACTTGGATGGGTTGA [3d1737]	0.826
TATCACTTGTGTAGACACTTTGATGGGTTGA [3d1738]	0.824
TATCACTTGTGTAGACACTTTGGAGGGTTGA [3d1740]	0.0783
TATCACTTGTGTAGACACTTTGGATGGGTTA [3d1742]	0.828
TATCACTTGTGTAGACACTTTGGATGGGTTG [3d1743]	0.863
TATCACTTGTGTAGACACTTTGGATGGGTTGA [2d181]	0.871
TATCACTTGTGTAGACACTTTGGATGGTTGA [3d1741]	0.252
TATCACTTGTGTAGACACTTTGGTGGGTTGA [3d1739]	0.105
TATCACTTGTGTAGACATTTGGATGGGTTGA [3d1736]	0.883
TATCACTTGTGTAGACCTTTGGATGGGTTGA [3d1735]	0.845
TATCACTTGTGTAGCACTTTGGATGGGTTGA [3d1733]	0.841

Sequence	fraction ligated
TATCACTTGTGTGACACTTTGGATGGGTTGA [3d1731]	0.826
TATCACTTGTTAAACACTTTGGATGGGTTGA [3d1706]	0.842
TATCACTTGTTAAGAACTTTGGATGGGTTGA [3d1708]	0.874
TATCACTTGTTAAGACACTTGGATGGGTTGA [3d1711]	0.784
TATCACTTGTTAAGACACTTTGATGGGTTGA [3d1712]	0.786
TATCACTTGTTAAGACACTTTGGAGGGTTGA [3d1714]	0.111
TATCACTTGTTAAGACACTTTGGATGGGTTA [3d1716]	0.778
TATCACTTGTTAAGACACTTTGGATGGGTTG [3d1717]	0.83
TATCACTTGTTAAGACACTTTGGATGGGTTGA [2d179]	0.859
TATCACTTGTTAAGACACTTTGGATGGTTGA [3d1715]	0.348
TATCACTTGTTAAGACACTTTGGTGGGTTGA [3d1713]	0.111
TATCACTTGTTAAGACATTTGGATGGGTTGA [3d1710]	0.835
TATCACTTGTTAAGACCTTTGGATGGGTTGA [3d1709]	0.785
TATCACTTGTTAAGCACTTTGGATGGGTTGA [3d1707]	0.797
TATCACTTGTTAGACACTTTGGATGGGTTGA [3d1705]	0.842
TATCACTTTCAAGACACTTTGGATGGGTTGA [3d1479]	0.772
TATCACTTTCGAAACACTTTGGATGGGTTGA [3d1494]	0.795
TATCACTTTCGAAGAACTTTGGATGGGTTGA [3d1496]	0.843
TATCACTTTCGAAGACACTTGGATGGGTTGA [3d1499]	0.779
